Results reported in patent US20230348854A1.

What was measured:
[1] = biological target: Human NKp46 (NCR1, CD335), on cells (human) (UniProt O76036); experiment: cell-based or functional assay
[2] = biological target: Human CD94/NKG2A inhibitory receptor (CD159a), on NK cells (human) (UniProt Q13241); experiment: cell-based or functional assay

Sequence of UniProt O76036 (O76036 22-304 Q82K limits assumed): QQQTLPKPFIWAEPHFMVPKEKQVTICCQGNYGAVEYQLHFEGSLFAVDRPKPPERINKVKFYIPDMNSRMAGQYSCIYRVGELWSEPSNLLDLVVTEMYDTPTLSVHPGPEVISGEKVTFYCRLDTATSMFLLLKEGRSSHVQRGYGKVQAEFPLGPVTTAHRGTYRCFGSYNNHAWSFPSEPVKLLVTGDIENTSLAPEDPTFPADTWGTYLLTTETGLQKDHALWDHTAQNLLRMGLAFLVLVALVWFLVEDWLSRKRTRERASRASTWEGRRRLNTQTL

Substance	percentage of live NKp46-expressing K562 target cells after 24 hours with CAR T cells, 2:1 [1] [%]	autologous primary NK cells killed, 2:1 E:T [2] [%]
anti-CD19 CAR (αCD19 control CAR), expressed on primary human T cells (scFv)	16.2	
anti-NKG2A (HLA-E) CAR (αNKG2A CAR): G peptide/B2M/HLA-E 01:03 single-chain trimer fused to 4-1BB/CD3 zeta, expressed on primary human T cells (peptide-MHC)		64
